These are literature values, as cited in paper PMC2847435.

Series [1] has as its target Src pY527 tail pY527 tail (UniProt P12931).
The target in series [2] is PDZ ligand peptide VKESLV.
The target in series [3] is PDZ ligand peptide VKQSLL.

In general, Kd refers to the constant that tells how readily two partners part at equilibrium. In the case of “Src SH2 domain SH2 (from UniProt P12931)”, in series [1], the Kd is 29 µM.

As for “syntrophin PDZ domain PDZ (from UniProt Q61234)”, the Kd is 8 µM in series [2] and 100 µM in series [3].
